Target: GST-Sam68(1-277) (UniProt Q60749 1-277)
Test: EMSA

GST-Sam68(1-277), sequence (Q60749 1-277): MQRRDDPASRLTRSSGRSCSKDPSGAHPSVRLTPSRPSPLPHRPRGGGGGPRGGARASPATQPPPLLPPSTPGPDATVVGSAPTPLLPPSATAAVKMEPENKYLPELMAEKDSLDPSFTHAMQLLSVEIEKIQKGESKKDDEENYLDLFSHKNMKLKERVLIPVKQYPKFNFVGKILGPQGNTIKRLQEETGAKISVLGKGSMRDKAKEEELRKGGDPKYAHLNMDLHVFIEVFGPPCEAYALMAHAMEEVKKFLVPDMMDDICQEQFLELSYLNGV

**Q.** Does UAUUUAAUUCAUAAAUUUUGUUUUGUUUCUAGGGA (ssRNA) [Sgce WT probe (intron 7/exon 8 boundary)] bind?
**A.** binds

Reference: PMC3130265
